We go through one substance from publication PMC10158025.

This assay deals with CtBP2-Gluc-N / CtBP2-Gluc-C (CtBP-Gluc-PCA reporter) (human) (UniProt P56545). Put plainly: split reporter (BiFC, NanoBiT); Gluc-PCA in 293 cells co-transfected with the Gluc-N and Gluc-C fusions, luminance read; MTOB treatment gave a dose-dependent reduction of the signal.

For “CtBP2-Gluc-N / CtBP2-Gluc-C (CtBP-Gluc-PCA reporter), P56545 1-445 (natural protein; other documents disagree on this pair)”, the fold lower Gluc-PCA signal than the Zip-Zip dimer is 10 fold.
